Assay results from patent US20070142277.

Biological target: T1, fluorogenic APP-based peptide MCA-SEVNLDAEFK(DNP)-CONH2
T1 chain: SEVNLDAEFK

B1: BACE455 (protein)
chain: ETDEEPEEPGRRGSFVEMVDNLRGKSGQGYYVEMTVGSPPQTLNILVDTGSSNFAVGAAPHPFLHRYYQRQLSSTYRDLRKGVYVPYTQGKWEGELGTDLVSIPHGPNVTVRANIAAITESDKFFINGSNWEGILGLAYAEIARIIGGIDHSLYTGSLWYTPIRREWYYEVIIVRVEINGQDLKMDCKEYNYDKSIVDSGTTNLRLPKKVFEAAVKSIKAASSTEKFPDGFWLGEQLVCWQAGTTPWNIFPVISLYLMGEVTNQSFRITILPQQYLRPVEDVATSQDDCYKFAISQSSTGTVMGAVIMEGFYVVFDRARKRIGFAVSACHVHDEFRTAAVEGPFVTLDMEDCGYNIPQTDESTLMTIAYVMAAICALFMLPLCLMVCQWRCLRCLRQQHDDFADDISLLK
For B1, the BACE activity over time: mean fluorescence signal of Substrate V cleavage by HEK293 membrane extract, 15 min (mean fluorescence signal) was 125, the BACE activity over time: mean fluorescence signal of Substrate V cleavage by HEK293 membrane extract, 60 min (mean fluorescence signal) was 195 and the BACE activity over time: mean fluorescence signal of Substrate V cleavage by HEK293 membrane extract, 120 min (mean fluorescence signal) was 228. For the same protein, the BACE activity over time: mean fluorescence signal of Substrate V cleavage by HEK293 membrane extract, 240 min (mean fluorescence signal) was 239.
